According to the supplement of paper PMC10724198:
± gives the standard deviation of the averaged measurements.

What follows are sequences tested on Saccharomyces cerevisiae (assay: protein stability index of tFT-peptide fusion (C-terminal peptide) (PSI (0-1 scale)); higher = more stable (slower turnover)). Conditions: genetic background: wild type; temperature: 30 C.
Procedure: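 Multiplexed protein stability (MPS) profiling in S. cerevisiae. Random 12-aa peptides (tFT-X12 library) are fused to the C-terminus of a sfGFP-mCherry tandem fluorescent timer, after mCherry and a GGGS linker. Cells are FACS-sorted into 8 mCherry/sfGFP bins and deep-sequenced. The protein stability index (PSI) is the read-weighted bin average, scaled from 0 (unstable) to 1 (stable). Only peptides with >10 reads are reported; cells were grown at 30 °C in SC-His with glucose.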
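Note: PSI is a weighted mean of sequencing reads over stability bins, variants kept only with over 10 reads, mCherry proximal and sfGFP distal, peptide attached via GGGS linker.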

| Sequence | protein stability index |
| --- | --- |
| DRPRPLPTPLPP | 0.5905 ± 0.0021 |
| PALPPPVLLRLP | 0.557 ± 0.062 |
| GDVGGLFYVSLL | 0.7569 ± 0.0027 |
| SLSLFPPRRLLP | 0.734 ± 0.088 |
| FWIRGVTRCVWC | 0.724 ± 0.053 |
| LGGGPTGARPAM | 0.782 ± 0.078 |
| AIPAVRFCRTLR | 0.643 ± 0.055 |
| SKSRGVIVTVMV | 0.5681 ± 0.00072 |
| CVWKWFSFSGGG | 0.69 ± 0.021 |
| RGLGLVGLGGGG | 0.727 ± 0.012 |
| ASSTSSPPPLPP | 0.666 ± 0.032 |
| LSSCVRVSFLFF | 0.588 ± 0.028 |
| DEPGTEGAKPWR | 0.727 ± 0.074 |
| PPSPAPHATARP | 0.662 ± 0.062 |
| ASFRPDGYTYSV | 0.622 ± 0.071 |
| GCVVSGCGAGVV | 0.5755 ± 0.0057 |
| LSPLPHGLPFST | 0.736 ± 0.015 |
| ASLPPPFTMLLL | 0.686 ± 0.051 |
| GRLLVSVFEVVH | 0.614 ± 0.14 |
| LFGAIPRVEHAD | 0.718 ± 0.088 |
| LPHPPTPPLPRP | 0.667 ± 0.078 |
| PTPNPGHTRACL | 0.763 ± 0.23 |
| PLHMWFSLLKPS | 0.716 ± 0.074 |
| GQEAGRERNNWQ | 0.694 ± 0.011 |
| KSRLYVDVLMQR | 0.659 ± 0.077 |

| Sequence | protein stability index |
| --- | --- |
| GSWIKFVCRRAG | 0.731 ± 0.0095 |
| RVGGRVSGGGGL | 0.654 ± 0.027 |
| PLPIPSPLRSSF | 0.689 ± 0.053 |
| DCVRMLREGAGW | 0.721 ± 0.079 |
| EKKKTKKKTIKK | 0.636 ± 0.03 |
| KDTGTNKASRGQ | 0.67 ± 0.014 |
| YHPPLTIQSLGH | 0.694 ± 0.029 |
| RPPAVVHLQPFY | 0.7016 ± 0.0064 |
| NELRREVLEEDL | 0.657 ± 0.0085 |
| VLVGWWGLGGGV | 0.642 ± 0.046 |
| VTRGGRVFIVDL | 0.807 ± 0.094 |
| RIETHNQKSPGL | 0.737 ± 0.0023 |
| GRSIGVGGGGRG | 0.719 ± 0.059 |
| KKKRKKSKKKKK | 0.642 ± 0.1 |
| VREMGSPGLYRP | 0.713 ± 0.01 |
| RSTSPCPPTVSP | 0.641 ± 0.091 |
| ERKNRKIRREKK | 0.774 ± 0.16 |
| GEWCGGVAVFWR | 0.693 ± 0.028 |
| RFVCSRLGGSVP | 0.64 ± 0.0029 |
| DPHRTRPRITLP | 0.715 ± 0.044 |
| GASLFSEVMARE | 0.688 ± 0.027 |
| SHGQAPFNVLVA | 0.596 ± 0.025 |
| PPPPPAPPALPP | 0.6734 ± 0.001 |
| FRASLPRVPFSS | 0.695 ± 0.11 |
| EGYRDMAFKLCK | 0.697 ± 0.0093 |

| Sequence | protein stability index |
| --- | --- |
| PLPPPPRPPAPL | 0.688 ± 0.0072 |
| VFHLFSAVSLRL | 0.592 ± 0.0084 |
| HSGLTGLRRLVA | 0.594 ± 0.012 |
| WGFVCWGCGGCS | 0.746 ± 0.028 |
| PPPPLPPPPSPL | 0.653 ± 0.078 |
| LPLPSPLLPPRP | 0.712 ± 0.0051 |
| VLQSLRSLRRLG | 0.549 ± 0.071 |
| GRKSSITLLHTL | 0.58 ± 0.043 |
| KSKQKNKTQVKN | 0.66 ± 0.023 |
| GGIGYRRQAAQA | 0.673 ± 0.068 |
| SLVVFGFGGYLL | 0.686 ± 0.021 |
| PPALPRFPACTT | 0.714 ± 0.056 |
| GCGGSREAVVNG | 0.662 ± 0.042 |
| TKRRRKRRGAKK | 0.672 ± 0.014 |
| SPWERTEMTFPR | 0.822 ± 0.18 |
| PPAPLPAPRLAL | 0.709 ± 0.036 |
| HVSINERFKSMY | 0.717 ± 0.025 |
| CDRNLSYGAGSV | 0.705 ± 0.049 |
| PPPPPIPRPPHA | 0.73 ± 0.03 |
| VHENVGSGYNLE | 0.734 ± 0.14 |
| SVNGTGGGVVDL | 0.638 ± 0.12 |
| AIANIIERFTLL | 0.63 ± 0.066 |
| CVDGLFCCLVFW | 0.571 ± 0.028 |
| YGGSLLNVFGLG | 0.645 ± 0.0078 |
| FGPLFSEDTRKV | 0.703 ± 0.076 |

| Sequence | protein stability index |
| --- | --- |
| PYLLSLLSPLPL | 0.7005 ± 0.007 |
| ITSFIKSDKSSK | 0.696 ± 0.029 |
| LPASPGSVPFLF | 0.716 ± 0.084 |
| RSCGCNGPGRSP | 0.749 ± 0.08 |
| VRSLLGLPLPGL | 0.788 ± 0.041 |
| GKAIIIFEQLRR | 0.749 ± 0.12 |
| GGSGHGAGAVWG | 0.6979 ± 0.0057 |
| CGLRVAGVLCWG | 0.465 ± 0.05 |
| PPLGPRALPSPA | 0.67 ± 0.038 |
| RRYLREEDVQEK | 0.696 ± 0.049 |
| KQRENMCRCARE | 0.712 ± 0.074 |
| PSPLPVSAPLLP | 0.701 ± 0.039 |
| DSIVHSFYIPLL | 0.666 ± 0.048 |
| AGGWLGAEGCGG | 0.78 ± 0.033 |
| PIPTQYPPPKAP | 0.675 ± 0.069 |
| WFSRVSSASRRS | 0.7073 ± 0.00084 |
| LWVPPRSGRFGG | 0.681 ± 0.014 |
| PSTPPPRLHPSS | 0.642 ± 0.032 |
| RPFVSSAGSQFP | 0.808 ± 0.046 |
| PEGCQDGASPAE | 0.759 ± 0.021 |
| TRHPGGERIPTY | 0.743 ± 0.12 |
| FLLLSAGERCWD | 0.694 ± 0.085 |
| TQARDTIPGAKV | 0.678 ± 0.02 |
